Target: full-length dengue virus serotype 1 (DENV1) NS1 (dengue virus serotype 1 (DENV1))
Assay: crystal structure

Substance: full-length dengue virus serotype 1 (DENV1) NS1 (natural protein)
- stoichiometry N: 2

— paper PMC8000976
